Biological target: mouse embryonic heparan sulfate (HS) coupled to HiTrap column
Test: HS affinity chromatography (FPLC)
Conditions: 0-1.5 M NaCl gradient from fraction 5 to 14, parent: est. 100, read off a plot
[1] = value is the height of the salt-eluted peak at fraction 12

| Substance | response [1] | response (value is the height of the salt-eluted peak at about fraction 12) |
| --- | --- | --- |
| Scube2 (signal peptide, CUB domain, epidermal growth factor (EGF)-like protein 2), full-length, FLAG-tagged (from UniProt Q9NQ36) K608A; R609A; K612A; R613A; R615A; K616A; R619A; R622A; K623A; H626A; R627A; K643A; K644A; R647A | 11% |  |
| Scube2 (signal peptide, CUB domain, epidermal growth factor (EGF)-like protein 2), full-length, FLAG-tagged (from UniProt Q9NQ36) K608E; R609E; K612E; R613E; R615E; K616E; R619E; R622E; K623E; H626E; R627E | 4% |  |
| Spacer (isolated Scube2 spacer domain) K608A; R609A; K612A; R613A; R615A; K616A; R619A; R622A; K623A; H626A; R627A; K643A; K644A; R647A |  | 5% |

Source: PMC4873810
